Results from PMC3353895, “Crystal Structure of a Complex of DNA with One AT-Hook of HMGA1”.

Biological target: T1, HMGA1 third AT-hook (DBD3) peptide (UniProt P17096 81-89)
T1 chain: RKPRGRPKK
Test: X-ray crystallography; crystals: 5 mM MgCl2, 0.25 mM NiCl2, MPD up to 48%; 1:2 duplex:peptide; 2.27 A; only one of two AATT sites occupied; Crystallization by vapor diffusion: 25 mM Tris-HCl pH 7.5, 25 mM ammonium acetate, 5 mM MgCl2, 0.25 mM NiCl2, 5% MPD (raised to 48%), 0.2 mM DNA, 0.4 mM peptide, 4 C
Settings: blunt; self-complementary, 2 copies of the strand

B1: d(CGAATTAATTCG)2 (dsDNA)
DNA 1: CGAATTAATTCG
DNA 2: CGAATTAATTCG
B1: binds.
